Test results: US12281340B2, “Method of producing N-acyl-amino group-containing compound” (AJINOMOTO CO., INC., priority 2018, dated 2025)

What was measured:
Type in all cases: biochemical
Design in all cases: key: +: Detected; −: Not detected
[1] = Synthesis of N-caprinoylamino acid using purified acylamino acid synthetase, UPLC-MS detection; conditions: +ATP
Procedure: 2.0 mL of a reaction solution containing 50 mM Tris-HCl, 5 mM amino acid, 5 mM sodium caprate, 10 mM ATP, 10 mM MgCl2, 1 mM DTT, 50 μg of the purified enzyme, pH 8.0 was incubated at 25° C. for 24 hours. After completion of the reaction, 0.8 mL of a reaction stop solution (1% (v/v) phosphoric acid, 75% (v/v) methanol) was added, and the mixture was filtrated through a filter followed by being subjected to the UPLC-MS analysis to detect a signal of a molecular weight corresponding to an N-caprinoyl amino acid.
A UPLC-MS analysis condition is as follows.
(§1) Apparatus: ACQUITY UPLC (Waters)
• Column: ACQUITY UPLC BEH C18 1.7 2.1×100 mm Column (Waters) • Mobile phase A: 0.1% formic acid • Mobile phase B: acetonitrile Gradient
• Flow rate: 0.6 mL/min • Injection amount: 2 μL • Column temperature: 40° C. • Ionization method: ESI-negative
As a result of the UPLC-MS analysis, the signal of the molecular weight corresponding to the N-caprinoyl amino acid was confirmed in the reaction solution combining the enzyme and the amino acid shown in Table 3 below.

[2] = Synthesis of N-caprinoyl-amino acid derivative, N-caprinoyl-D-amino acid and N-caprinoyl-peptide using purified acylamino acid synthetase, UPLC-MS detection; conditions: +ATP
Procedure: 0.2 mL of a reaction solution containing 50 mM Tris-HCl, 5 mM amino acid derivative or D-amino acid or peptide, 5 mM sodium caprate, 10 mM ATP, 10 mM MgCl2, 1 mM DTT, 50 μg/mL of the purified enzyme, pH 8.0 was incubated at 25° C. for 24 hours. After completion of the reaction, 0.8 mL of the reaction stop solution (1% (v/v) phosphoric acid, 75% (v/v) methanol) was added, and the mixture was filtrated through the filter followed by being subjected to the UPLC-MS analysis to detect a signal of a molecular weight corresponding to an N-caprinoyl-amino acid derivative, an N-caprinoyl-amino acid or an N-caprinoyl-peptide. A condition for the UPLC-MS analysis is as described in Example 2.
As a result of the UPLC-MS analysis, the signal of the molecular weight corresponding to the N-caprinoyl-amino acid derivative, or N-caprinoyl-amino acid, or N-caprinoyl-peptide was confirmed in the reaction solution containing the enzyme in combination with the amino acid derivative or the D-amino acid or the peptide shown in Table 4 below.

[3] = Synthesis of N-acylamino acids from various fatty acids using purified acylamino acid synthetase, UPLC-MS detection
Procedure: 0.1 mL of a reaction solution containing 50 mM Tris-HCl, 5 mM amino acid, 5 mM sodium fatty acid (3 mM of sodium palmitate or sodium stearate), 10 mM ATP, 10 mM MgCl2, 1 mM DTT, 200 μg/mL of the purified enzyme, pH 8.0 was shaken at 25° C. for 24 hours. When sodium palmitate or sodium stearate was used, methanol at a final concentration of 10% (v/v) was contained in the reaction solution. As the amino acid, L-Asp was used in AtGH3-6, OsGH3-8, AtGH3-5, AtGH3-12, L-Ile was used in AtJAR1, L-Ala was used in AtGH3-10, SsGH3, L-Glu was used in AtGH3-17, Gly was used in CfHP, L-Lys was used in PsIAAL, and L-Cys was used in PaHP. After completion of the reaction, 0.4 mL of the reaction stop solution (1% (v/v) phosphoric acid, 75% (v/v) methanol) was added, and the mixture was filtrated through the filter followed by being subjected to the UPLC-MS analysis to detect a signal of a molecular weight corresponding to the N-acylamino acid.
The condition for the UPLC-MS analysis is as follows.
as §1
Column: ACQUITY UPLC BEH C18 1.7 μm 2.1×100 mm Column (Waters), mobile phase A: 0.1% formic acid; mobile phase B: acetonitrile
• Flow rate: 0.6 mL/minute • Injection amount: 2 μL • Column temperature: 40° C. • Ionization method: ESI-negative
As a result of the UPLC-MS analysis, the signal of the molecular weight corresponding to the appropriate N-acylamino acid was confirmed in the reaction solution containing the enzyme in combination with sodium fatty acid shown in Table 7 below.

B1: AtJAR1: Jasmonic acid-amido synthetase JAR1 from Arabidopsis thaliana, His-tagged (protein, listed as Arabidopsis thaliana)
chain: MLEKVETFDMNRVIDEFDEMTRNAHQVQKQTLKEILLKNQSAIYLQNCGLNGNATDPEEAFKSMVPLVTDVELEPYIKRMVDGDTSPILTGHPVPAISLSSGTSQGRPKFIPFTDELMENTLQLFRTAFAFRNRDFPIDDNGKALQFIFSSKQYISTGGVPVGTATTNVYRNPNFKAGMKSITSPSCSPDEVIFSPDVHQALYCHLLSGILFRDQVQYVFAVFAHGLVHAFRTFEQVWEEIVTDIKDGVLSNRITVPSVRTAMSKLLTPNPELAETIRTKCMSLSNWYGLIPALFPNAKYVYGIMTGSMEPYVPKLRHYAGDLPLVSHDYGSSEGWIAANVTPRLSPEEATFAVIPNLGYFEFLPVSETGEGEEKPVGLTQVKIGEEYEVVITNYAGLYRYRLGDVVKVIGFYNNTPQLKFICRRNLILSINIDKNTERDLQLSVESAAKRLSEEKIEVIDFSSYIDVSTDPGHYAIFWEISGETNEDVLQDCCNCLDRAFIDAGYVSSRKCKTIGALELRVVAKGTFRKIQEHFLGLGSSAGQFKMPRCVKPSNAKVLQILCENVVSSYFSTAF
modifications: His-tag
notes: Jasmonic acid-amido synthetase JAR1 from Arabidopsis thaliana, His-tagged
+: signal of molecular weight corresponding to N-caprinoyl amino acid ([1]; substrates GABA and sodium caprate) | signal of molecular weight corresponding to N-caprinoyl amino acid ([1]; substrates Gly and sodium caprate) | signal of molecular weight corresponding to N-caprinoyl amino acid ([1]; substrates L-Ala and sodium caprate) | signal of molecular weight corresponding to N-caprinoyl amino acid ([1]; substrates L-Arg and sodium caprate) | signal of molecular weight corresponding to N-caprinoyl amino acid ([1]; substrates L-Asn and sodium caprate) | signal of molecular weight corresponding to N-caprinoyl amino acid ([1]; substrates L-Asp and sodium caprate) | signal of molecular weight corresponding to N-caprinoyl amino acid ([1]; substrates L-Gln and sodium caprate) | signal of molecular weight corresponding to N-caprinoyl amino acid ([1]; substrates L-Glu and sodium caprate) | signal of molecular weight corresponding to N-caprinoyl amino acid ([1]; substrates L-His and sodium caprate) | signal of molecular weight corresponding to N-caprinoyl amino acid ([1]; substrates L-Ile and sodium caprate) | signal of molecular weight corresponding to N-caprinoyl amino acid ([1]; substrates L-Leu and sodium caprate) | signal of molecular weight corresponding to N-caprinoyl amino acid ([1]; substrates L-Met and sodium caprate) | signal of molecular weight corresponding to N-caprinoyl amino acid ([1]; substrates L-Phe and sodium caprate) | signal of molecular weight corresponding to N-caprinoyl amino acid ([1]; substrates L-Pro and sodium caprate) | signal of molecular weight corresponding to N-caprinoyl amino acid ([1]; substrates L-Ser and sodium caprate) | signal of molecular weight corresponding to N-caprinoyl amino acid ([1]; substrates L-Thr and sodium caprate) | signal of molecular weight corresponding to N-caprinoyl amino acid ([1]; substrates L-Trp and sodium caprate) | signal of molecular weight corresponding to N-caprinoyl amino acid ([1]; substrates L-Tyr and sodium caprate) | signal of molecular weight corresponding to N-caprinoyl amino acid ([1]; substrates L-Val and sodium caprate) | signal of molecular weight corresponding to N-caprinoyl amino acid ([1]; substrates β-Ala and sodium caprate) | signal of molecular weight corresponding to N-caprinoyl compound ([2]; substrates D-Ala and sodium caprate) | signal of molecular weight corresponding to N-caprinoyl compound ([2]; substrates D-Asp and sodium caprate) | signal of molecular weight corresponding to N-caprinoyl compound ([2]; substrates D-Glu and sodium caprate) | signal of molecular weight corresponding to N-caprinoyl compound ([2]; substrates D-Ile and sodium caprate) | signal of molecular weight corresponding to N-caprinoyl compound ([2]; substrates L-Gly-L-Gly and sodium caprate) | signal of molecular weight corresponding to N-caprinoyl compound ([2]; substrates Sarcosine and sodium caprate) | signal of molecular weight corresponding to N-caprinoyl compound ([2]; substrates Taurine and sodium caprate) | signal of molecular weight corresponding to N-acylamino acid ([3]; substrates L-Ile and Capric acid) | signal of molecular weight corresponding to N-acylamino acid ([3]; substrates L-Ile and Caproic acid) | signal of molecular weight corresponding to N-acylamino acid ([3]; substrates L-Ile and Caprylic acid) | signal of molecular weight corresponding to N-acylamino acid ([3]; substrates L-Ile and Lauric acid)
−: signal of molecular weight corresponding to N-caprinoyl amino acid ([1]; substrates L-Cys and sodium caprate) | signal of molecular weight corresponding to N-caprinoyl amino acid ([1]; substrates L-Lys and sodium caprate) | signal of molecular weight corresponding to N-caprinoyl compound ([2]; substrates Carnosine and sodium caprate) | signal of molecular weight corresponding to N-caprinoyl compound ([2]; substrates D-Cys and sodium caprate) | signal of molecular weight corresponding to N-caprinoyl compound ([2]; substrates D-Lys and sodium caprate) | signal of molecular weight corresponding to N-caprinoyl compound ([2]; substrates L-Asp-L-Phe and sodium caprate) | signal of molecular weight corresponding to N-acylamino acid ([3]; substrates L-Ile and Linoleic acid) | signal of molecular weight corresponding to N-acylamino acid ([3]; substrates L-Ile and Palmitic acid) | signal of molecular weight corresponding to N-acylamino acid ([3]; substrates L-Ile and myristic acid)
